Results from patent publication US20230391826A1 (SANFORD BURNHAM PREBYS MEDICAL DISCOVERY INSTITUTE, published 2023).
Where two headings read alike, the source gives them in different places. Where no end group is shown, it is not given here.

Key:
[1] = target: T1, EphA2 endogenously expressed on PC3 prostate cancer cells (UniProt P29317 24-976, limits assumed); test: cell-based or functional assay
[2] = target: T1, EphA2 endogenously expressed on PC3 …; test: cell-based or functional assay; remark: listed apart in the source
[3] = target: T2, EphA2 ligand binding domain (EphA2 LBD), residues 28-200 (UniProt P29317 28-200); test: ITC, soluble EphA2 LBD and peptide
T2 construct: range 28-200; Expressed in E. coli; also called soluble EphA2 LBD; soluble monomeric EphA2 LBD
T2 sequence (P29317 other isoform, or with tags, fused parts or gaps limits assumed, form in doubt): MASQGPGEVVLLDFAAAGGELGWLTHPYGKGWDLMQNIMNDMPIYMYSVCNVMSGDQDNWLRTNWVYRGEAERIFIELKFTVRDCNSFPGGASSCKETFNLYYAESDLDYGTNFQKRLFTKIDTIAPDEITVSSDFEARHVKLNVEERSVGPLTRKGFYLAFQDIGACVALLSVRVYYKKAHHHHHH

[4] = target: T2, EphA2 ligand binding domain (EphA2 …); test: ITC, soluble EphA2 LBD and peptide; remark: listed apart in the source
Method: (§1) For ITC, all peptides are dissolved in DMSO and both the EphA2 LBD and the peptides are diluted to obtain a final buffer containing 9.5 mM HEPES, pH 7.9, 95 mM NaCl, and 5% DMSO. The experiments are carried out at 296 K (23° C.) using an ITC200 calorimeter (Microcal). Two-microliter aliquots of a peptide solution are injected into the cell containing 205 μL EphA2 LBD. 200-400 μM peptides are titrated into 20-40 μM EphA2 LBD. Experimental data are analyzed using the Origin software package (Microcal). The integrated values for the reaction heats are normalized to the amount of injected peptide after blank subtraction.

[5] = target: T2, EphA2 ligand binding domain (EphA2 …); test: ITC, soluble EphA2 LBD and peptide; remark: listed apart in the source
Method: as §1

[6] = target: T3, EphA2 extracellular domain fused to the Fc portion of an antibody (EphA2-Fc); test: ELISA, inhibition of ephrinA5-AP binding to immobilized EphA2-Fc
T3 construct: extracellular domain; Immobilized on the ELISA wells; also called immobilized EphA2
T3 sequence (P29317 whole entry, the tested form may be a part): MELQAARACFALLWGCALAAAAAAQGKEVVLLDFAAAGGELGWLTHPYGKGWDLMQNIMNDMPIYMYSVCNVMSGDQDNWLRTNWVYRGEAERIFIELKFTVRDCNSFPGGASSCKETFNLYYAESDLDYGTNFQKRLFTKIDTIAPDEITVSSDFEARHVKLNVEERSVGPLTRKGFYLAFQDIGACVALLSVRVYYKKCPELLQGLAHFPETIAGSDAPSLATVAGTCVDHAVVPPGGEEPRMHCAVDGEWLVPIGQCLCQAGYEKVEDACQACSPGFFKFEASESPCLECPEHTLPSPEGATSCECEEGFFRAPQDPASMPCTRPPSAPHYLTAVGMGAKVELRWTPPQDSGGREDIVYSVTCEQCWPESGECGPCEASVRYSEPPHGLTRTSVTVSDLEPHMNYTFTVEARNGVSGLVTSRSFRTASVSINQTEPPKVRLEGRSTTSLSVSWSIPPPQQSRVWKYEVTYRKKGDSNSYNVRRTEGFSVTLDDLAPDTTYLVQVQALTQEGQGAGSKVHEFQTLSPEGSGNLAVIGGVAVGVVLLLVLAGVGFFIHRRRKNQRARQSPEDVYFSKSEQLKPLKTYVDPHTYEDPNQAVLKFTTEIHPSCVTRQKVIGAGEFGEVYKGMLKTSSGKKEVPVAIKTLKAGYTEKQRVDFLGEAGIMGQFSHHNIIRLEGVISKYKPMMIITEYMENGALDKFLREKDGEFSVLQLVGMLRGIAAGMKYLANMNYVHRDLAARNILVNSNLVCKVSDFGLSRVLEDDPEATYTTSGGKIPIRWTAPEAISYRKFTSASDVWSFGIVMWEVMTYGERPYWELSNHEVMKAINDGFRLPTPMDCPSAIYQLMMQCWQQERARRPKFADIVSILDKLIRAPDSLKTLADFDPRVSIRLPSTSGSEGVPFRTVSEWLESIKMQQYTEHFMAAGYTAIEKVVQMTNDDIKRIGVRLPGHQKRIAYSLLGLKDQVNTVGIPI

[7] = target: T3, EphA2 extracellular domain fused to the …; test: as above; remark: listed apart in the source
[8] = target: T2, EphA2 ligand binding domain (EphA2 …); test: ITC, EphA2 LBD (200-250 µM) titrated into 10-12.5 µM peptide; single titration shown
[9] = target: T3, EphA2 extracellular domain fused to the …; test: ELISA, inhibition of ephrinA5-AP binding to immobilized EphA2-Fc; representative experiment, triplicates

T1 sequence (P29317 24-976 limits assumed): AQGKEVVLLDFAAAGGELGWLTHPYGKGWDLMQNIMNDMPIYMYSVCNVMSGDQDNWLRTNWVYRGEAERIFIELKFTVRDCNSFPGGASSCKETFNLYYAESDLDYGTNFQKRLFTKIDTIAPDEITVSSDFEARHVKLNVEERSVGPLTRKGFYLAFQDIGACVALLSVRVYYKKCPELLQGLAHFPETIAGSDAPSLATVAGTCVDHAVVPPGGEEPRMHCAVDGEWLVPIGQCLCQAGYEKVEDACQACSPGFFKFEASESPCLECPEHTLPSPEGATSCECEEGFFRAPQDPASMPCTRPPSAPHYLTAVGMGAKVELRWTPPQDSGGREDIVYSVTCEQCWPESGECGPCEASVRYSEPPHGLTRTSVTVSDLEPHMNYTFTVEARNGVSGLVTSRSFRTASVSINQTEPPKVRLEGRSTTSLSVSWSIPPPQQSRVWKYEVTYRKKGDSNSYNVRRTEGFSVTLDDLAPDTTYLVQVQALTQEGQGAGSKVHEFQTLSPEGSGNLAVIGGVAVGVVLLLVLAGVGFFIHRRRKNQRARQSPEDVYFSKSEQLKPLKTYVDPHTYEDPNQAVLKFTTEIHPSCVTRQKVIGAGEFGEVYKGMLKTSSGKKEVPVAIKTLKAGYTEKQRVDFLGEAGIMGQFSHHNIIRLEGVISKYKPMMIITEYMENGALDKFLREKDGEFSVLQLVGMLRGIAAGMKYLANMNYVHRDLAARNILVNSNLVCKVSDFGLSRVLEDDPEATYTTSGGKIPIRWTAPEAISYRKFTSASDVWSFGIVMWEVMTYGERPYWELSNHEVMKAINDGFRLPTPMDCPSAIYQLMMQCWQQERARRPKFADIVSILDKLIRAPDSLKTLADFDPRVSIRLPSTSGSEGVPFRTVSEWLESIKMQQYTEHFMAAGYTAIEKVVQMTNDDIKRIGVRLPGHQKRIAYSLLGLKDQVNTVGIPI

B1: CGA-WLA-YRPK dimer (N-ter) (peptide)
peptide: CGAWLAYPDSVPYRPK
modifications: also: N-terminally disulfide-linked homodimer, disulfide at 1, other end not in the chain
notes: also called dimer (5); dimeric peptide (5)
[1]
  Blig (bias factor): 0.81
  EC50 PY588: 0.53 nM
  Emax PY588: 0.78 normalized to ephrinA1-Fc
  IC50 PAKT: 0.068 nM
[2]
  EC50 pAKT inhib: 0.09 nM
  Etop pAKT inhib: 1
  Etop pY588: 0.87 normalized to ephrinA1-Fc
  βlig (bias factor): 0.66
[3]
  Kd: 380 nM
  N (binding stoichiometry): 2.2
[4]
  Kd: 21 nM
  N (binding stoichiometry): 2.2
[5]
  -TΔS: 21.9 kcal/mol
  Kd: 21 nM
  N (binding stoichiometry): 2.2
  ΔG: -10.4 kcal/mol
  ΔH: -32.3 kcal/mol
[6]
  IC50: 0.65 nM
[7]
  IC50: 0.66 nM
[8]
  Kd: 18 nM
[9]
  IC50: 0.79 nM
